The target in the experiment is Solanum tuberosum aspartic protease plant-specific insert (saposin-like domain), recombinant (Solanum tuberosum). The experiment in a line: AUC; sedimentation equilibrium, 26-28 uM PSI, 27 mM sodium phosphate pH 3.0, 140 mM NaCl, 20 °C, single ideal species model; monomer to dimer.

For orientation: stoichiometry N means the number of molecules, sites or subunits per partner or assembly. For the substance “Solanum tuberosum aspartic protease plant-specific insert (saposin-like domain), recombinant (domain or fragment)”, the stoichiometry N came out at 2.

These data come from publication PMC5717070.
